Patent publication US20250376505A1 (UNIVERSITE DE STRASBOURG, published 2025)

B1: B5P4 (antibody, V domains shown)
VH: QVQLVQSGAEVKKPGSSVKVSCKASGGRFSRYGSSWVRQAPGQGLEWMGGIIPLLGTANYAQKFQDRVSITADESTSTVYMHLSSLRSEDTAVYYCATARREYDRPGAEYFIQWGQGTLVTVSS
VL: EIVMTQSPATLSVSPGERATLSCRASQSVSTNLAWYQQKPGQAPRLLIYDAFLRATGIPARFSGSGSGTEFTLTISSLQPEDFAVYYCQQYNYWPPLTFGGGTKVEIK
B2: D11P7 (antibody, V domains shown)
VH: EVQLVESGGGLVQPGGSLRLSCAASGFTFRSYTMDWVRQAPGKGLEWVSCISGSSNHKYYADSVRGRFTISRDNAKNSLFLQMNSLRAEDSAVYYCAREDDILTPLYGMDVWGPGTTVTVSS
VL: QSALTQPASVSGSPGQSITISCTGTSSDVGAYNYVSWYRLRPGKDPHLIIYDVSHRPAGVSNRFSGSKSGNTASLTISGLQAEDEDEYYCCSYAHRGTPLFGGGTKLTVL
B3: E10P2 (antibody, V domains shown)
VH: EVQLLESGGALVQPGGSLRLSCAASGFTFRSYAMNWVRQAPGKGLEWVSSLSSSGTTTYYADSVKGRFTISRDNSKNTMYLQMDSLRGEDTAVYYCAKDRNAQWLGSEPLDPWGQGTLVTVSS
VL: EIVLTQSPGTLSLSPGERATLSCRASQSVSSSYLAWYQQKPGQAPRLLIYGASSRATGIPDRFSGSGSGTDFTLTISSLQPDDFAIYYCQQAYTFPWTFGQGTKLEIK
B4: C9P1 (antibody, V domains shown)
VH: EVQLLESGGGLVQPGGSLRLSCVTSGFTFSSYSMTWVRQAPGKGLEWVSYISSSSRTISYADSVQGRFTISRDNAKNVLYLQMNSLRAEDTAVYYCARQAVAHFDYWGQGTLVTVSS
VL: EIVLTQSPGTLSLSPGERATLSCRASQRVSSNYLAWYQQKPGQAPRLLIYGASSRATGIPDRFSGSGSGTDFTLTISRLEPEDFAVYYCQQYGTSPRSFGQGTKVEIK
B5: D9P6 (antibody, V domains shown)
VH: QLQLQESGPGLVKPSETLSLTCTVSGTYISTNSYYWGWIRQPPGKGLEWIGSIEYGGSTYYNPSLRSRLTISVDTSKNHFSLRLSSVTAADTAMYYCASANSHYYDSGGYCAPSALDIWGQGTMVTVSS
VL: EIVMTQSPATLSVSPGERVTLSCRASQSASSHLAWYQHKRGQAPRLLIYAASSRATGIPARFSGRGSGTEFTLTISSLQSEDFAVYYCQQYNNWPPGYSFGQGTKLEIK

What was measured:
[1] = biological target: T1, VP1 pentamer of BKV genotype IV (BK virus genotype IV, UniProt P14996 30-300); experiment: ELISA, coated VP1 pentamer
T1 construct: also called VP1 pentamers of genotype IV; GIV; not shown: N-terminal His-tag of pESPRIT002; C-terminal biotin acceptor peptide (BAP) of pESPRIT002

[2] = biological target: T2, VP1 pentamer of BKV genotype II (BK virus genotype II, UniProt P14996 30-300); experiment: ELISA, coated VP1 pentamer
T2 construct: also called VP1 pentamers of genotype II; GII; not shown: N-terminal His-tag of pESPRIT002; C-terminal biotin acceptor peptide (BAP) of pESPRIT002

[3] = biological target: VP1 capsid protein on BKV genotype Ia pseudovirions (BK-D; JF894228) (BK virus genotype Ia (BK-D)); experiment: cell-based or functional assay
[4] = biological target: VP1 capsid protein on BKV genotype II pseudovirions (GBR-12; AB263920) (BK virus genotype II (GBR-12)); experiment: cell-based or functional assay
[5] = biological target: VP1 capsid protein on BKV genotype IVc2 pseudovirions (A-66H; AB369093) (BK virus genotype IVc2 (A-66H)); experiment: cell-based or functional assay

Binder | binding result [1] | binding result [2] | Neutralization PSV IC50 [3] [µg/mL] | Neutralization PSV IC50 [4] [µg/mL] | Neutralization PSV IC50 [5] [µg/mL] | EC50 [1] [µg/mL] | EC50 [2] [µg/mL]
B1 | no binding (tested: 50 µg/mL (starting concentration)) | no binding (tested: 50 µg/mL (starting concentration)) | – | – | – | – | –
B2 | no binding (tested: 50 µg/mL (starting concentration)) | no binding (tested: 50 µg/mL (starting concentration)) | – | – | – | – | –
B3 | no binding (tested: 50 µg/mL (starting concentration)) | no binding (tested: 50 µg/mL (starting concentration)) | – | – | – | – | –
B4 | no binding (tested: 50 µg/mL (starting concentration)) | no binding (tested: 50 µg/mL (starting concentration)) | – | – | – | – | –
B5 | – | – | > 50 | > 50 | > 50 | 4 | 9
